This is an account of results in article PMC6908968 (Cell, 2019).

In experiment [1] the target is T1, thermolysin-cleaved EBOV GP on Jurkat-GP cells (cleaved GP) (Zaire ebolavirus, Makona (GP1 core …, strain)).
T1 chain 1: not shown
T1 chain 2: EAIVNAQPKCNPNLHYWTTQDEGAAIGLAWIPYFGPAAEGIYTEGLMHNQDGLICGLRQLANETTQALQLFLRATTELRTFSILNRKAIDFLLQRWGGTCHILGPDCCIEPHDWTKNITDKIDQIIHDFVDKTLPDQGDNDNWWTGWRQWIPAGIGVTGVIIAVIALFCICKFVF

Experiment [2] concerns the target EBOV GP ectodomain residues 1-636 (GPec) (Zaire ebolavirus, strain  …, UniProt Q05320).

B1: 5.6.c2693 (antibody, V domains shown)
VH: QVQVVESGGGVVQPGRSLRLTCATSGFTFRSYGMHWVRQAPGKGLEWVAGISYDGSNKYYADSVKGRFSISRDNSKNTVYLQMNSLRVEDTAVYYCANQLICVNGVCYKTTSVAGIDYWGQGTLVTVSS
VL: DIQMTQSPSSLSASVGDRVTITCRASQDISNYLAWFQQKPGKAPKCLIYAASSLQSGVPSKFSGSGSGTDFTLTISSLQPEDFATYYCQQYKDYPLTFGPGTKVDVR
For the molecule B1, the binding result in experiment [1] and in experiment [2] was “binds” each time.

B2: 5.6.c2517 (antibody, V domains shown)
VH: QVQLQQWGAGLLKPSETLSLSCSVYPGSFSGYYWAWIRQPPGKGLEWIGEINHSGSTKYNPSLKSRVTISIDTSKNQLSLKMSSVTAADSAVYYCASLTRSSWFRAFDYWGQGTLVTVSS
VL: QSALTQPASVSGSPGQSITISCTGSSSDIGGYDYVSWYQQHPGKAPKLMIFDVSDRPSGVSNRFSGSKSGNTASLTISGLQPEDEADYYCSSYTSISSSYVFGTGTKVTVL
On to B2, for which the binding result in experiment [1] and in experiment [2] was “binds” throughout.

B3: 5.6.c2670 (antibody, V domains shown)
VH: QVQLEQWGAGLLKPSETLSLTCGVNGGSFSGSYWIWIRQSPGKGLEWIGEISHSGSTNSNPSLKSRVTISVDTSKNHFSLTLSSVTAADTAVYYCATSTLDSSSVFYYSYGLDVWGQGTTVTVSS
VL: DIQMTQSPSSVSASVGDRVTITCRASQDISSWLAWYQQKPGRAPNLLIYAASSLLSGVPSRFSGSGSGTDFTLTISSLQPGDSATYYCQQGHSLPLTFGGGTKVEIR
For the molecule B3, the binding result in experiment [1] and in experiment [2] was “binds” each time.

B4: 5.6.c2485 (antibody, V domains shown)
VH: QVTLKESGPVLVKPTETLTLTCTVSGFSLSTARMGVGWIRQPPGKALEWLAHIFSDDEKSYSTSLKSRLTISKDTSKSQVVLTMTNMDPVDTATYYCARIQSSEWIYYYYGMDVWGQGTTVTVSS
VL: DIQMTQSPSSVSASIGDTVTITCRASQDLSYWLAWYQQKPGKAPKLLIYAASSLQSGVPSRFSGSGSGTDFTLTISSLQPEDFATYYCQQAHSFPITFGQGTRLEIK
For B4, the binding result in experiment [1] and in experiment [2] was “binds” in each case.

B5: 5.6.c2712 (antibody, V domains shown)
VH: QVQLQESGPGLVKPSETLSLTCSVSGGSISSDYWSWIRQPPGKGLEWIGYIYYDGSTNFNPSLKSRVTISVDTSKNQLSLKLSSVTAADTAVYYCARVRRWIELGTGLGDWFDPWGQGTLVTVSS
VL: SSELTQDPAVSVALGQTVRITCQGDSLRSYYASWHQLKPGQAPVVVIYGIHNRPSGIPDRFSGSSSGNTASLTITGAQAEDEADYYCSSRDSSGNHLVFGGGTKLTVL
For B5, the binding result in experiment [1] and in experiment [2] was “binds” throughout.

B6: 5.6.c2633 (antibody, V domains shown)
VH: EVQLVQSGGGLVQPGGSLTLSCAASGFTFTDHWIHWVRQAPGKGLEWVANVKPDGSEKYYVDSVKGRFTISRDNAKKSLSLQMNSLRADDTAVYYCARSQLEGLGDLFYYNFGLDVWGQGTTVTVSS
VL: EIVMTQSPATLSVSPGERATLSCRASQSVNSNLAWYQQKPGQAPRLLIYGASTRATGIPARFSGRGSGTDFTLTISSLQSEDFALYYCQQYNTWPPLTFGGGTKVEIN
Take B6: the binding result in experiment [1] and in experiment [2] was “binds” in each case.

B7: 5.6.c2692 (antibody, V domains shown)
VH: QVTLRESGPALVKSTQTLTLTCTFSGFSLSTSGMCVSWIRQPPGKALEWLALIDWDDGKYYSTSLKTRLTISKGTSKNQVVLTMTNMDPVDTATYYCARIRYTSDWFYDAFDIWGQGTMVTVSS
VL: ETVMTQSPATLSVSPGERATLSCRASQSVNSNLAWYQQRPGQAPRLLISGASTRATGIPARFSGSGSGTEFTLTISSLQSEDFAVYYCQQYNDWPPLTFGGGTKVEIK
For the molecule B7, the binding result in experiment [1] and in experiment [2] was “binds” throughout.

B8: 5.6.c2724 (antibody, V domains shown)
VH: QVQLQQLGAGLLKPSETLSLTCAVSGGSFSGYYWSWIRQSPGKGLEWIGEVNQSGNTNYNPSLKSRVTISPDTSKNQFSLKLSSVTAADTAVYYCARGLEDTALLADAFDIWGQGTLVTVSS
VL: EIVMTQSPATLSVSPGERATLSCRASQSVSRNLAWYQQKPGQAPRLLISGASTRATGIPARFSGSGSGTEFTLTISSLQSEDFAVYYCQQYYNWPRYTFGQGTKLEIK
With B8, the binding result in experiment [1] and in experiment [2] was “binds” in each case.

B9: 5.6.c2687 (antibody, V domains shown)
VH: QVQLMESGGGVVQPGRSLRLSCAASGFTFSSYGMHWVRQAPGKGLEWVAVIWNDGSNKYYADSVKGRFTISRDNSKNTLYLQMNSLRVEDTAVYYCARDSSAPAAIFYDAFDMWGQGTMVTVSS
VL: EIVMTQSPATLSVSPGERATLSCRASQSINSNLAWYQQKPGQAPRLLIYGVSTRATGIPARFSGSGSGTEFTLTISSLQSEDFAVYYCQQYNNWWTFGQGTKVEIK
Consider B9, for which the binding result in experiment [1] and in experiment [2] was “binds” each time.

B10: 5.6.c2627 (antibody, V domains shown)
VH: QVQLVQSGAEVKKPGSSVKVSCKASGGTFSTYGFIWVRQAPGQGLDWMGGIIPIFDKTNYGQRFQGRVTITADKSTSTVHMELSSLRSEDTAVYYCARCRSGFKDPSGYFYYAMDVWGQGTTVTVSS
VL: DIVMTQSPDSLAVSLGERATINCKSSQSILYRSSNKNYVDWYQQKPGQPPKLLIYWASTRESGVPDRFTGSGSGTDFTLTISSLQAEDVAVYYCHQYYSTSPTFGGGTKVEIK
For B10, the binding result in experiment [1] and in experiment [2] was “binds” in each case.

B11: 5.6.c2569 (antibody, V domains shown)
VH: QVQLQESGPGLVKPSGTLSLTCAVSGGSISSPNWWSWVRQSPEKGLEWIGEVFHSGSTNYNPSLKSRATISVDNSKNQFSLRLTSVTAADTAIYYCARDLGWLVHGYFDPWGQGILVTVSS
VL: EIVLTQSPGTLSLSPGERATLSCRAGQSVSSSYVAWYQQKPGQAPRLLIYDTSSRATGIPDRFSGSGSGTDFTLTISRLEPEDFAVYYCQQYGTSRTWTFGQGTRVEIK
Consider B11, for which the binding result in experiment [1] and in experiment [2] was “binds” each time.

B12: 5.6.c2685 (antibody, V domains shown)
VH: EVQLVESGGGLVQPGGSLRLSCAASGFTFSRSWMNWVRQAPGKGLEWVANIKQDGSEKYYVDSVKGRFTISRDNAKNSLYLQMNSLRAEDTGVYYCAKATVTTELTFFYYYALDVWGQGTTVTVSS
VL: EIVMTQSPATLSVSPGERATLSCRASQSINNNLAWYQQKPGQAPRLLISDASTRATGVPARFSGSGSGTEFTLTISSLQSEDSAVYHCQQYNTWPPFTFGGGTKVEIK
As to B12, the binding result in experiment [1] and in experiment [2] was “binds” each time.

B13: 5.6.c2609 (antibody, V domains shown)
VH: QVQLVESGGGVVQPGRSLRLSCAASGIAFSNYAMHWVRQAPGKGLEWVALISSDARDQYYADSVKGRFTISRDNSKSTLYLEMNSLTSEDTAIYYCASDTSSHYSSLLYNWFDSWGQGSLVTVSS
VL: DIQMTQSPSSLSASVGDRVTITCRAIQSISTFLNWYQHKPGKAPKVLIYGASNLQSGVPSRFSGSGSGTDFTLTISSLQPEDFATYYCQQSYNTPFTFGPGTKVDIK
With B13, the binding result in experiment [1] and in experiment [2] was “binds” throughout.

B14: 5.6.c2686 (antibody, V domains shown)
VH: QVQLQESGPGLVKPSGTLSLTCAVSGGSITSSDWWSWVRQTPGKGLEWIGQIYSGGMTDYNPSLKSRVTMSLDKSKNQFSVKLNSVTAADTAVYYCARHRLNAEMYCSGGSCYPADSNWFDPWGQGTLVTVSS
VL: DIQMTQSPSSLSASVGDRVTITCRASQSISTYLNWYQQKPGKAPKLLIYATSSLQSGVPSRFSGSGSGTDFTFTISSLQPEDFATYYCQQSYSTPFTFGPGTKVDIK
B14: the binding result in experiment [1] and in experiment [2] was “binds” throughout.

B15: 5.6.c2644 (antibody, V domains shown)
VH: QVQLVQSGAEVKKPGASVKVSCKASGYTFSNYGITWVRQAPGQGLEWMGWISAYNGNTKYAQKVQGRVTLSTDTSTSTAYMELRSLRSDDTAIYYCARDPGMITPGGVIEHWGQGTLVTVSS
VL: DIQMTQSPSSLSASVGDRVTVTCRASQGISNYLAWYQQKPGKVPKLLIYAASTLHSGVPSRFSGSGSGTDFTLTISSLQPEDVATYVCHNYNNAPRTFGQGTKVEIK
For B15, the binding result in experiment [1] and in experiment [2] was “binds” in each case.

B16: 5.6.c2526 (antibody, V domains shown)
VH: QVQLVESGGGVVQPGGSLRLACAASGFTFSNSGLHWIRQAPGKGLEWMTVISHDGNNKYYADSVKGRFTISRDNSENMLYLQMNSLRPEDTAVYYCARDRIRYSDWGVYYYYNGMDVWGQGTTVTVSS
VL: QSVLTQPPSVSAAPGQKVTISCSGSISNIGNHYVSWYKQLPGTAPKVLIYDNNKRPSGIPDRFSGSKSGTSATLGLTGLQTGDEADYFCGTWDSSLSVWVFGGGTKLTVL
Consider B16, for which the binding result in experiment [1] and in experiment [2] was “binds” in each case.

B17: 5.6.c2518 (antibody, V domains shown)
VH: EVQLVESGGGVVQPGGSLKLSCAASGFTFDDHAMHWVRQAPGKGPEWVSLISWDGANSYYANSVRGRFTVSRDNSKNSLFLQMNSLRTEDTALYYCARDLHNYAFWSGYPDYWGRGTLVTVSS
VL: DIQLTQFPSSLSASVGDRVVITCRASQSISSSLNWYQQKPGNAPQLLIYTVSSLYTGVPSRFSGSASGTDFTLTISSLRPEDFATYYCQQTHSVPYTFGQGTKLEIK
Consider B17, for which the binding result in experiment [1] and in experiment [2] was “binds” throughout.

B18: 5.6.c2682 (antibody, V domains shown)
VH: QVQLVESGGGVVQPGRSLRLSCAASGFTFSNYAMHWVRQAPGKGLEWVAVTSDDKDNRYYADSVKGRFIISRDNSKNTLYLQMNSLRAEDTAVYHCAKDFEVFSSIFNGAYDSWGQGTLVIVSS
VL: EVVMTQSPATLSVSPGERATLSCRASQSVGFNLAWYQQKPGQAPRLLIYDASTRATGIPARFSGSGSGTEFTLTISSLQSGDFAVYYCQQYNNWPPYTFGQGTKLEIK
For the molecule B18, the binding result in experiment [1] and in experiment [2] was “binds” throughout.

B19: 5.6.c2636 (antibody, V domains shown)
VH: QVQLVQSGAEVKKPGASVKVSCKASGYTFTDYYMHWVRQAPGQGLEWLGIIIPTGTLSYAQKFQGRVTMTSDTSTNTFYMELRSLRSEDTAVYFCAREKSRDFDWELFDYWGQGTLVTVSS
VL: QSVLTQPPSASGTPGQRITISCSGSSSNIGNNAVSWYQQIPGMAPKLLIYSSNQRPSGVPDRFSGSKSGTSASLAISGLQSEDETDYYCAAWDDSLNGPVFGGGTKVTVL
For the molecule B19, the binding result in experiment [1] and in experiment [2] was “binds” in each case.
